Data taken from patent publication US20040235717A1, “Suppression of androgen receptor transactivation through new pathways to ar and ar coactivators and repressors” (priority 2001, published 2004).

Experiments:
AR-Smad3 interaction = target: T1, AR-Smad3 interaction (Homo sapiens, UniProt P10275); test: GST-Smad3 pull-down of AR with added Smad4; assay type: binding; conditions: GST-Smad3, [35S]-AR, purified Smad4 added
T1 construct: in vitro transcribed/translated [^35S]-labeled full-length AR and GST-Smad3 (2 μg); made in house; host or cells: AR: TNT-coupled reticulocyte lysate (Promega); GST-Smad3: E. coli BL21 (DE3) pLysS
T1 sequence (P10275 1-920): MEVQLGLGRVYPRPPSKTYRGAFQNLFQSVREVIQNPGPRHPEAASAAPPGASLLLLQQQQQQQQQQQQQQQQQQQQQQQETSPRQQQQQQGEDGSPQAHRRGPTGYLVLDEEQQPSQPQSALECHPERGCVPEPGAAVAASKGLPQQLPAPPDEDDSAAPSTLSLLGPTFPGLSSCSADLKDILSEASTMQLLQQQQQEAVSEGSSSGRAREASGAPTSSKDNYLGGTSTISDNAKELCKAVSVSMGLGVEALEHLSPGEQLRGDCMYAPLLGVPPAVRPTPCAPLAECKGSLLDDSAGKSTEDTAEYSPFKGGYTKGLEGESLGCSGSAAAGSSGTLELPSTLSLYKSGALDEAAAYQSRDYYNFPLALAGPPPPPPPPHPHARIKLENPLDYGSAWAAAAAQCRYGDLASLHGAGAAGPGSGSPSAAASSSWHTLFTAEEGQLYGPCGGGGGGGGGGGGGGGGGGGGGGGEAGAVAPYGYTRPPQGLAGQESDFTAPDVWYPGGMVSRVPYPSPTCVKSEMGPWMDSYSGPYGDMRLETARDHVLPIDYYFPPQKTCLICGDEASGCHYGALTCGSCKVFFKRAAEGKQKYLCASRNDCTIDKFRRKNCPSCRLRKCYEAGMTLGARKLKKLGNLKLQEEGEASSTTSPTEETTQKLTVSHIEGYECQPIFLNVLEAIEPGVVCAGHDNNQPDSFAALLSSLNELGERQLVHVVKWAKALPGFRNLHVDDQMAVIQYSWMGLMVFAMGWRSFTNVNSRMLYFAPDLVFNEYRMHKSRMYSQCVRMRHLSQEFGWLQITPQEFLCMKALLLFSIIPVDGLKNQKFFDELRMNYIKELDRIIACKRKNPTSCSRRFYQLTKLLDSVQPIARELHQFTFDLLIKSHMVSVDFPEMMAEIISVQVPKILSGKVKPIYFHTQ
Protocol: 34. […] Complex bound to GST columns was subjected to SDS-PAGE and autoradiography. […] (C) The indicated amounts of purified Smad4 proteins were added to fixed volumes of in vitro transcribed/translated [^35S]-labeled full-length AR and GST-Smad3 (2 μg) to test for interaction. Bands were detected using a phosphoimager. A representative blot of three independent experiments is shown.
335. Fusion proteins of GST-Smad3 and GST-AR, and GST protein alone were obtained by transforming expressing plasmids into BL21 (DE3) pLysS strain competent cells followed with 1 mM IPTG induction. GST-fusion proteins then were purified by Glutathione-Sepharose™ 4B (Pharmacia). The wtAR and deletion mutant AR (mtAR) proteins labeled with [^35S] were generated in vitro using the TNT-coupled reticulocyte lysate system (Promega). […] The bound proteins were separated on an 8% SDS-polyacrylamide gel and visualized by using autoradiography.

PSA mRNA expression = PSA mRNA expression in LNCaP cells, Northern blot; assay type: cell-based; conditions: presence of androgen
AR transactivation [1] = test: AR transactivation with Smad3/Smad4, CAT reporters in PC3-AR2, PC-3 and LNCaP cells; assay type: cell-based, human; conditions: PC3-AR2, MMTV-CAT
Protocol: 32. […] LNCaP cell were transfected with Smad3 or Smad4 expression vector instead of PC-3(AR)2 cells in experiments otherwise identical with those in A (B), PC-3(AR)2 cells stably transfected with AR were over-expressed with the indicated amounts of Smad3 or Smad4 or SRC-1. 3 μg of MMTV-CAT was used as a reporter plasmid in all experiments. All values represent the averages±SD of four independent experiments. […] PSA expression level was determined by Northern blotting. The probe was obtained from exon 1 of the PSA gene and labeled with [α-^32P] dCTP. A β-actin probe was used as a control for equivalent mRNA loading. (C, Table 1) The RNA samples from (A) were reverse transcribed to cDNAs and all of the samples were subjected to real-time CR using an ABI Prism 7700 Sequence Detection System (Perkin-Elmer Applied bio systems). PCR was performed using the SYBR Green PCR Core Reagents kit (Perkin-Elmer Applied Bio systems). PSA and β-actin forward, reverse primers concentrations were 2.5 μM. To reduce variability between replicates, PCR premixes which contained all reagents except for total RNA were prepared and aliquoted into 1.5 ml microfuge tubes. Specific PCR amplification products were detected by the fluorescent double-stranded DNA-binding dye SYBR Green core reagent kit. Experiments were performed with triplicates for each data point.
37. […] (A) PC3-AR2, SW480·C7, and PC-3 cells were transiently co-transfected with either MMTV-CAT, PSA-CAT, 5XARE-CAT, or (TAT)2-CAT (3 μg), in the presence of AR, Smad3, Smad4 or Smad3/Smad4 as indicated. Each CAT activity is presented relative to the transactivation observed in the absence of Smad3. All values represent the mean±SD of three independent experiments.
333. Human prostate cancer DU145 cells and PC-3 cells were maintained in Dulbecco's Minimum Essential Medium containing penicillin (25 U/ml), streptomycin (25 μg/ml), and 5% fetal calf serum. Transfections were performed using the calcium phosphate precipitation method and cells were harvested after 24 h for the chloramphenicol acetyltransferase (CAT) assay, as described previously (Kang, et al. (1999) J. Biol. Chem. 274, 8570-8576). The CAT activity was visualized and quantitated by STORM 840 (Molecular Dynamics). At least three independent experiments were carried out in each case. The SW480·C7 cells and PC-3(AR)2 cells are the gifts from Dr. Eric J. Stanbridge and Dr. T. J. Brown

[2] = tested on: interaction between AR and PTEN; test: Co-immunoprecipitation of AR and PTEN in CWR22 cells; assay type: cell-based, human
Protocol: 28. […] (C) The cell lysates from the CWR22 were immunoprecipitated by anti-PTEN antibody, followed by Western blot analysis. […] The cells were harvested for co-immunoprecipitation. Lane 1: 10% input; Lane 2: IP by non-immune IgG; Lane 3: IP by anti-AR antibody; Lane 4: The PTEN protein was depleted from the cell lysates by anti-PTEN antibody before IP by anti-AR antibody; Lane 5: IP by anti-PTEN antibody. (E) CWR22 cells were transfected with vector or Akf for 48 h and the cells were harvested for immunoprecipitation assay.
314. The immunoprecipitation and Western blotting were performed as previously described (Qiu et al. (1998) Nature 393, 83-5). The cell extracts (1 mg) were immunoprecipitated with the indicated antibody. The immunocomplexes were subjected to 8% SDS-PAGE and immunoblotted with the indicated antibody.

LNCaP cells = test: PTEN-induced apoptosis in LNCaP cells, TUNEL assay; assay type: cell-based
AR transactivation [3] = test: AR transactivation, MMTV-luc / (ARE)4-luc luciferase reporter assay; assay type: cell-based; conditions: LNCaP
AR protein levels = test: AR protein (Western blot) and AR mRNA (Northern blot) levels; assay type: cell-based; conditions: LNCaP; 10 nM DHT
Akt = Akt activity in LNCaP cells, Western blot with phospho-Akt (Ser473) antibody; assay type: cell-based; conditions: LNCaP
Protocol: 18. […] (A) Akt suppressed androgen/AR-induced p21 promoter activity. […] (B) Androgen/AR-induced PC-3(AR)6 apoptosis and p21 protein expression was blocked by Akt PC-3(AR)6 was transfected with pCDNA3, cAkt, or dAkt, as indicated, for 16 h. […] (C) AR-induced p21 protein expression was enhanced by dAkt in LNCaP cells. […] LNCaP stable transfection with dAkt was confirmed by western blot assay using phospho-Akt (Ser473) antibody. […] TPA was then added for another 24 h and cell apoptosis was determined by TUNEL assay. […] IGF-1 was added for another 30 min, followed by 10 nM TPA treatment for another 24 h. The apoptosis was determined by TUNEL assay. The data are means±s.d. from three independent experiments.
(§1) 31. […] (D) The LNCaP cells were transfected with plasmids as indicated for 16 h, and the medium was changed to 0.1% CDS media for 2 days. The cell apoptosis was determined by TUNEL assay (E) The LNCaP cells were transfected with plasmids as indicated for 16 h, harvested, and the cell extracts were subjected to SDS-PAGE. The Akt activity was determined by Western blotting using phospho(S473)-Akt antibody. (F) The U87MG cells were transfected with plasmids as indicated for 16 h, and the medium was changed 0.1% CDS media for 2 days. The cell apoptosis was determined by TUNEL assay. Data for luciferase activity and apoptosis are means±s.d. from three independent experiments.

AR transactivation [4] = test: AR transactivation, (ARE)4-luc in CWR22 cells; assay type: cell-based, human
Protocol: as §1
312. […] The cells were lysed and the luciferase activity was detected by the dual luciferase assay according to standard procedures.

U87MG cells = test: PTEN-induced apoptosis in AR-negative U87MG cells, TUNEL assay; assay type: cell-based
Protocol: as §1
311. For the apoptosis assay, the cells were transfected with plasmids for 24 h and grown in 0.1% charcol-stripped serum (CDS) media. The apoptosis was determined 2 days after transfection using the TUNEL assay according to the standard procedures (Oncogene). At least 200 cells were scored for each sample and data are means±s.d. from three independent experiments.

B1: Smad4: candidate tumor suppressor, shared component of Smad signaling (protein)
chain: MDNMSITNTPTSNDACLSIVHSLMCHRQGGESETFAKRAIESLVKKLKEKKDELDSLITAITTNGAHPSKCVTIQRTLDGRLQVAGRKGFPHVIYARLWRWPDLHKNELKHVKYCQYAFDLKCDSVCVNPYHYERVVSPGIDLSGLTLQSNAPSSMMVKDEYVHDFEGQPSLSTEGHSIQTIQHPPSNRASTETYSTPALLAPSESNATSTANFPNIPVASTSQPASILGGSHSEGLLQIASGPQPGQQQNGFTGQPATYHHNSTTTWTGSRTAPYTPNLPHHQNGHLQHHPPMPPHPGHYWPVHNELAFQPPISNHPAPEYWCSIAYFEMDVQVGETFKVPSSCPIVTVDGYVDPSGGDRFCLGQLSNVHRTEAIERARLHIGKGVQLECKGEGDVWVRCLSDHAVFVQSYYLDREAGRAPGDAVHKIYPSAYIKVFDLRQCHRQMQQQAATAQAAAAAQAAAVAGNIPGPGSVGGIAPAISLSAAAGIGVDDLRRLCILRMSFVKGWGPDYPRQSIKETPCWIEIHLHRALQLLDEVLHTMPIADPQPLD
AR-Smad3 interaction (AR-Smad3 interaction): decrease this AR-Smad3 interaction in a dose-dependent manner | Effect on androgen-induced PSA mRNA expression (PSA mRNA expression): slight suppression of PSA mRNA expression | Effect on Smad3-enhanced AR transactivation (AR transactivation [1]): significantly repressed | Effect on androgen-activated AR transactivation (AR transactivation [1]; 10^−8 M DHT): slightly suppressed

B2: ARf: the interaction domain within AR (aa; 483-651) (protein)
chain: YTRPPQGLAGQESDFTAPDVWYPGGMVSRVPYPSPTCVKSEMGPWMDSYSGPYGDMRLETARDHVLPIDYYFPPQKTCLICGDEASGCHYGALTCGSCKVFFKRAAEGKQKYLCASRNDCTIDKFRRKNCPSCRLRKCYEAGMTLGARKLKKLGNLKLQEEGEASSTTS
modifications: left off: small tags and cut ends
Interaction between AR and PTEN [2]: disrupted the interaction between AR and PTEN | Effect on PTEN-induced apoptosis (LNCaP cells): markedly reduced PTEN-induced apoptosis | Effect on PTEN suppression of AR transactivation (AR transactivation [3]): dramatically reduce | Effect on PTEN-mediated promotion of AR degradation (AR protein levels): dramatically reduce | Effect on PTEN-mediated inhibition of Akt activity (Akt): little influence | Effect on PTEN suppression of AR transactivation (AR transactivation [4]): significantly reduce PTEN suppressive effect on AR transactivation | Effect on PTEN-induced apoptosis (U87MG cells): only marginal effects

B3: PTEN-#1: PTEN fragment (aa, 1-107) that does not interact with AR (protein)
chain: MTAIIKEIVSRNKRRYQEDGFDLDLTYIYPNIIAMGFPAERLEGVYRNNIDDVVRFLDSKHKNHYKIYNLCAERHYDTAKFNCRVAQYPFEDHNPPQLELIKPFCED
modifications: left off: a dimerising Fc or GST
Effect on PTEN functions (AR degradation, AR transactivation) (AR transactivation [3]): only marginal effect
